From publication PMC12482441 (Autophagy Reports, 2025)
One block for each molecule: values may come before it.

Legend:
[1] = target: His-MBP-tagged N. fulvescens Atg17 (N. fulvescens); test: negative stain EM
[2] = target: the molecule itself; test: negative stain EM

stoichiometry N [1]: 2
Molecule: His-MBP-tagged N. fulvescens Atg17 (natural protein)

B1: His-MBP-tagged S. pombe Atg17 (natural protein, UniProt O42651 1-411, looked up)
chain: MELLQQWTQQAKAALTQARQLCGDAHKFNEDAKTDLRNSIKQHQQLKELAKLTASQCTRLDSSTALIKQLLDLVQNYPTFNQLNVLHDRLESSLKRLRDCTLDPALGSEYTNLYAFVDDTALEDLKTRLRGVTDGVWNAFEKLAGLLEEDLCANYHKRLEAVSLDFLPPAYNDTAEELADLLLQVAQHYDQCSEALNIYDTLSDAEKKDLQEVLQSDSNHVPSVLTELRSGLDQTIHYFNAVQSYKSKVDSATSILEALAEELNKNQLTNQRHEAAHELMRAQTGLEIPQLAQELVQLERHYTHFAKAYTALLQEIHRRQTYENCVRSIVDEFVGRLEKEQQAEAKCRIDFFNQYGDYLPQTLWGAVTDPPLHFEIIEHQYTELPNVKVIPDKNDKKSKQREKSSTTASKR
stoichiometry N [2]: 2

B2: His-MBP-tagged S. cerevisiae Atg17 (natural protein, UniProt Q06410 1-417, looked up)
chain: MNEADVTKFVNNARKTLTDAQLLCSSANLRIVDIKKKLSSWQLSISKLNFLIVGLRQQGKFLYTILKEGIGTKLIQKQWNQAVLVVLVDEMKYWQYEITSKVQRLDGIVNELSISEKDDTDPSKLGDYISRDNVNLLNDKLKEVPVIERQIENIKLQYENMVRKVNKELIDTKLTDVTQKFQSKFGIDNLMETNVAEQFSRELTDLEKDLAEIMNSLTQHFDKTLLLQDKKIDNDEREELFKVVQGDDKELYNIFKTLHEVIDDVDKTILNLGQFLQAKIKEKTELHSEVSEIINDFNRNLEYLLIFKDISNLIDSFKNSCTQDIQTTKELCEFYDNFEESYGNLVLEAKRRKDVANRMKTILKDCEKQLQNLDAQDQEERQNFIAENGTYLPETIWPGKIDDFSSLYTLNYNVKNP
stoichiometry N [2]: 2
